Results: patent US11242370B2, “Neuregulin-4 compounds and methods of use” (Eli Lilly and Company, priority 2019, dated 2022)
Marks after values point to notes of the source that are not given here.

Assays:
human HER2/HER4 = molecular target: T1, human HER2/HER4 (Homo sapiens, UniProt Q15303); assay: Human HER2/HER4 phospho-ERK 1/2 assay, purified proteins, CHO-K1 cells; assay type: cell-based
T1 construct: expressed in transfected cells
Experimental: (§1) A cell based assay utilizing CHO-K1 cells overexpressing human or rat HER receptors is used to determine activity of NRG4 compounds. CHO-K1 cells (ATCC) are grown in DMEM-F12 3:1 with 5% FBS with 20 mM HEPES, 40 μg/mL L-Proline, lx antibiotics and were split 1:5 every 2-3 days with TripLE Express (Gibco). Cells are transfected with plasmid DNA encoding HER receptors in pairs (hHER2-3, hHER2-4, rHER2-3 and rHER2-4) with Fugene 6 (Promega) according to the manufacturer's instructions. […] Transfected cells are selected with Puromycin (12 ug/ml) and Hygromycin (1 mg/ml) for 3-4 weeks and clonal lines are obtained by limited dilution cloning into 96 well plates. Clonal lines are selected by appropriate gene expression of HER2, HER3 or HER4 by Taqman method. Lines with appropriate receptor expression are confirmed by NRG1 induced phospho-ERK 1/2 responses. Clones are grown up, harvested, aliquoted into cryovials and then frozen under liquid nitrogen for long-term storage.
(§2) A phospho-ERK1/2 activity assay is utilized with CHO-K1 cells overexpressing human or rat HER receptors to determine potencies and selectivity of purified NRG4 compounds. CHO-K1 cell lines expressing the human or rat HER receptors are cultured with selection medium (DMEM-F12 3:1 with 5% FBS with 20 mM HEPES, 40 μg/mL L-Proline, 1× antibiotics, 12 μg/mL puromycin, 1 mg/mL Hygromycin B). On Day −1 (the day before phospho-ERK1/2 assay), cells are washed once with PBS, detached with enzyme free cell dissociation solution (GIBCO cat #13151-014), and resuspended in plating medium (DMEM-F12 3:1 with 20 mM HEPES, lx antibiotics, 0.2% FBS). Cells are plated in a 96-well Poly-D-Lysine coated plate (BD cat #354640) at 10,000 cells per 0.1 mL per well. Cells are cultured in a tissue culture incubator at 37° C. 5% CO2 overnight. On Day 1 (the day of pERK1/2 assay), plates are incubated at room temperature for 30 min. The culture media are removed followed by addition of 504, ligand at various concentrations diluted in PBS-20 mM HEPES-0.005% BSA. Native human NRG1 and NRG4 peptides are purchased from Reprokine (Tampa, Fla.). The stimulation time is 30 min (except for hHER2-4 1H6 line in which 15 min is used for stimulation). At the end of stimulation, ligands are removed and 704, Lysis buffer (made according to manufacturer's recipe, Perkin Elmer cat #ALSU-PERK-A10K) is added. Plates are incubated at room temperature for 10 min on plate shaker with 350 rpm agitation, then on ice for 1 hour without shaking. 304, of cell lysis is transferred to a 96-well white Optiplate (Perkin Elmer cat #6002290) for phospho-ERK1/2 assay. Briefly 7.5 μL acceptor beads are added to 30 μL lysis in Optiplate. The plate is covered with aluminum foil and incubated at room temperature for 1 hour on plate shaker with 350 rpm agitation. Then 7.5 μL donor beads are added and the plate is covered with aluminum foil and incubated at room temperature for 2 hours on plate shaker with 350 rpm agitation or at 4° C. for overnight (warm up plate at room temperature for 2 h before reading). Alpha signal data are obtained on an Envision instrument (Alpha Technology-compatible plate reader). Donor beads and acceptor beads are made according to assay protocol. The data shown are generated with either the AlphaScreen SureFire p-ERK1/2 (Thr202/Tyr204) assay kit (Cat #TGRES50k) or the AlphaLISA® SureFire® Ultra™ p-ERK 1/2 (Thr202/Tyr204) assay kit (Perkin Elmer cat #ALSU-PERK-A10K). The activity of the NRG1 peptide was similar in both types of assays. Raw data obtained from the Envision instrument is imported into GraphPad Prism software (version 7). The EC50 value is generated by a variable slope-four parameter dose response curve. The % of maximal NRG1 activity data are generated by expressing the average maximal raw data for the NRG4 compound over the average maximal raw data for the native human NRG1 per plate and multiplying by 100. Data are provided below in Tables 7-9. N values reflect number of independent assays run. […]

rat HER2/HER4 = molecular target: T2, rat HER2/HER4 (Rattus norvegicus, UniProt Q62956); assay: Rat HER2/HER4 phospho-ERK 1/2 assay, purified proteins, CHO-K1 cells; assay type: cell-based
T2 construct: expressed in transfected cells
Experimental: as §1, §2

human HER2/HER3 = molecular target: T3, human HER2/HER3 (Homo sapiens, UniProt P21860); assay: Human HER2/HER3 phospho-ERK 1/2 assay, purified proteins, CHO-K1 cells; assay type: cell-based; settings: purified proteins; phospho-ERK1/2
T3 construct: expressed in transfected cells
Experimental: as §1
as §2, with “assays.” for “assays. Raw data obtained from the Envision instrument is imported into GraphPad Prism software (version 7). The EC50 value is generated by a variable slope-four parameter dose response curve. The % of maximal NRG1 activity data are generated by expressing the average maximal raw data for the NRG4 compound over the average maximal raw data for the native human NRG1 per plate and multiplying by 100. Data are provided below in Tables 7-9. N values reflect number of independent assays run.”

rat HER2/HER3 = molecular target: T4, rat HER2/HER3 (Rattus norvegicus, UniProt Q62799); assay: Rat HER2/HER3 phospho-ERK 1/2 assay, purified proteins, CHO-K1 cells; assay type: cell-based; settings: phospho-ERK1/2
T4 construct: expressed in transfected cells
Experimental: as §1
A phospho-ERK1/2 activity assay is utilized with CHO-K1 cells overexpressing human or rat HER receptors to determine potencies and selectivity of purified NRG4 compounds. CHO-K1 cell lines expressing the human or rat HER receptors are cultured with selection medium (DMEM-F12 3:1 with 5% FBS with 20 mM HEPES, 40 μg/mL L-Proline, 1× antibiotics, 12 μg/mL puromycin, 1 mg/mL Hygromycin B). On Day −1 (the day before phospho-ERK1/2 assay), cells are washed once with PBS, detached with enzyme free cell dissociation solution (GIBCO cat #13151-014), and resuspended in plating medium (DMEM-F12 3:1 with 20 mM HEPES, lx antibiotics, 0.2% FBS). Cells are plated in a 96-well Poly-D-Lysine coated plate (BD cat #354640) at 10,000 cells per 0.1 mL per well. […] Then 7.5 μL donor beads are added and the plate is covered with aluminum foil and incubated at room temperature for 2 hours on plate shaker with 350 rpm agitation or at 4° C. for overnight (warm up plate at room temperature for 2 h before reading). Alpha signal data are obtained on an Envision instrument (Alpha Technology-compatible plate reader). […]

[1] = test system: rat model of heart failure with reduced ejection fraction (HFrEF); assay: Rat MI model, Example 11 dose-response, echocardiography; assay type: in vivo
Experimental: A nonclinical efficacy pharmacology study is conducted in a rat model of heart failure with reduced ejection fraction (HFrEF) to identify dose-response relationship for Example 11.
Briefly, the rats are anesthetized and positively ventilated throughout the procedure. […] The left coronary artery is permanently ligated. The sham-operated animals undergo the same procedure except the silk suture is placed around the left coronary artery without being tied. All rats are individually housed in a temperature and humidity controlled room and maintained on a 12 hour light/dark cycle. Three weeks after surgery, rats undergo transthoracic echocardiography for determination of ejection fraction (EF %) and left ventricle dimensions (LVD) using a Vevo 2100 ultrasound system. Rats are randomized across treatment groups according to EF % and LVD.
Measurements of EF % and LVD are expressed as mean values±standard error (SE). Statistical analysis is performed with JMP® 13 software (SAS Institute, Inc.; Cary, N.C.) and Dunnett's Test is used for statistical comparisons across treatment groups. Statistical significance is accepted at P<0.05.
Two to three weeks after MI surgery, animals are allocated to treatment groups and treated with a single injection of vehicle (DPBS) or one of the 3 dose levels (0.3, 1, 3 mg/kg) of Example 11.

cynomolgus monkeys = assay: Toxicology study in cynomolgus monkeys, cardiac tissue inspection; settings: male and female monkeys, single 3 mg/kg SC bolus injection
Experimental: (§3) Example 11 is administered in a single 3 mg/kg dose to male and female monkeys by SC bolus injection.

[2] = Plasma pharmacokinetics in rats (toxicology studies); settings: rat, in vivo, sc, 30 mg/kg
Experimental: as §3

[3] = Plasma pharmacokinetics in monkeys (toxicology studies); settings: cynomolgus monkey, in vivo, sc, 3 mg/kg
Experimental: as §3

rats = assay: Toxicology study in rats, cardiac tissue inspection; settings: single SC injection of 30 mg/kg
[4] = maximal signal relative to native human NRG1 per plate
[5] = purified proteins, phospho-ERK1/2

T2 sequence (Q62956 26-1308): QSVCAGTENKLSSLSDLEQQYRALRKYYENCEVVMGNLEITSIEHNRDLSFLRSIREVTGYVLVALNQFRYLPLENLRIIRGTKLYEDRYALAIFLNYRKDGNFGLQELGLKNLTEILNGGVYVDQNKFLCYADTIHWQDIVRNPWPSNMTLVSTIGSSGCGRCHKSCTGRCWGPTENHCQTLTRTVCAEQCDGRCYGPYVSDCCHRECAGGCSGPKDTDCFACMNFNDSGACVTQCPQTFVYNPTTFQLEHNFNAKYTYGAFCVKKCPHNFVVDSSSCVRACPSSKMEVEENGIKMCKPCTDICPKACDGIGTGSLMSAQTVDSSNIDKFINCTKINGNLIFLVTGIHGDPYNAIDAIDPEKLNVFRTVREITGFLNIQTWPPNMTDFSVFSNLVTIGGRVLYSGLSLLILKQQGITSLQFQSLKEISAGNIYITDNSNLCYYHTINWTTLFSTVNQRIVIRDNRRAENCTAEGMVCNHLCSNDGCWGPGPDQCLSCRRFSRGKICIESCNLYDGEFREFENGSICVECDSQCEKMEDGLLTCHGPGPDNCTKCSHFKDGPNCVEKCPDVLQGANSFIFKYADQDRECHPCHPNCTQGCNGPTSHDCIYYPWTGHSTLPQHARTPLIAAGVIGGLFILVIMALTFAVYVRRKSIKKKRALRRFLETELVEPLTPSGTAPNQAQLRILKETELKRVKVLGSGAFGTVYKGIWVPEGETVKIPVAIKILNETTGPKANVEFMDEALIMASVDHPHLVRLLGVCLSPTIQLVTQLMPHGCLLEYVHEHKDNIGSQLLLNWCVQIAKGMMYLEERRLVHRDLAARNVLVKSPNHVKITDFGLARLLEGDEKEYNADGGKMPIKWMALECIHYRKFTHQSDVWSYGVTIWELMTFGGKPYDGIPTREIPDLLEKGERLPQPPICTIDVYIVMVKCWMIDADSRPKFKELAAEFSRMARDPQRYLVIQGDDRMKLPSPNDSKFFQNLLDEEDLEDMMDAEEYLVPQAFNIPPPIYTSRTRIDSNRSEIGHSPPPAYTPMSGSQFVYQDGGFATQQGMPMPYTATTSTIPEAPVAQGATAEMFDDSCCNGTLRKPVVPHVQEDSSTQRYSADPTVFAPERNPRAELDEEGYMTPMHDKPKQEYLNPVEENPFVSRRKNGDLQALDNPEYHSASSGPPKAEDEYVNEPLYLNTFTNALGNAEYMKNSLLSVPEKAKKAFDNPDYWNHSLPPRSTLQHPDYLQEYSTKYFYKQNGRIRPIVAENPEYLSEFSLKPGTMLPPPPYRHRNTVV
T2 sequence (P06494 23-1257 partner): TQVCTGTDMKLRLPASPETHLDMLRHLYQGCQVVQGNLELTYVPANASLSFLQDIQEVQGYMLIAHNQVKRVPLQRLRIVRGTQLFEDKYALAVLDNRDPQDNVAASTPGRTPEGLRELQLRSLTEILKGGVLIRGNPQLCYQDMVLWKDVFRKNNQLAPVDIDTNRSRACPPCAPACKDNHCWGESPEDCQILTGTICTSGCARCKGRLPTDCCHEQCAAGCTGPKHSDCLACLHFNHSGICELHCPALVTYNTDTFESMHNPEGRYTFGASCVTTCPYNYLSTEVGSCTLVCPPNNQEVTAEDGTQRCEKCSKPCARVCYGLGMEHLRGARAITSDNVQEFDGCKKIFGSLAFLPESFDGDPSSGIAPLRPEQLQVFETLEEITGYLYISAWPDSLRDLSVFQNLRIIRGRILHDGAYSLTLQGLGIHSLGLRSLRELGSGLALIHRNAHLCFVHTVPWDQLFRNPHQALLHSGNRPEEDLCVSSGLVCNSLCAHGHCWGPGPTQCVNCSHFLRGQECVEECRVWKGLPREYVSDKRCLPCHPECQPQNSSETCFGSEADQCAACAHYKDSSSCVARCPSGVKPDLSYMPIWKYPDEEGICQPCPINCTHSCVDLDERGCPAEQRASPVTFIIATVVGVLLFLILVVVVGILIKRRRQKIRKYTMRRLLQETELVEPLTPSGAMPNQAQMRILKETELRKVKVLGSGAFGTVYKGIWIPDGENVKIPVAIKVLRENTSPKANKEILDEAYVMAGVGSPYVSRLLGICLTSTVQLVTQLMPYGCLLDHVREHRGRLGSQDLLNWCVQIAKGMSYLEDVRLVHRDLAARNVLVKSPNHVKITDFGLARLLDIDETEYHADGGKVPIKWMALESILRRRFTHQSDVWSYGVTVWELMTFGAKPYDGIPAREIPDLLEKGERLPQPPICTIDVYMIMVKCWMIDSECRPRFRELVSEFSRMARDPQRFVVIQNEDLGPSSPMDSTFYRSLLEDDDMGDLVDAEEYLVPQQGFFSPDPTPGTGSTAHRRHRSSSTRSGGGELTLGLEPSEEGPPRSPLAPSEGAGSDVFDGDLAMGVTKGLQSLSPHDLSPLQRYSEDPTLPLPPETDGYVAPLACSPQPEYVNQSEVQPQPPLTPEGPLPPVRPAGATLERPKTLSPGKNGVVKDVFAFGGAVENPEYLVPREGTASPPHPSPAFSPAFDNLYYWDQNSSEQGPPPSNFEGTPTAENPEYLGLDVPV
T4 sequence (Q62799 20-1339): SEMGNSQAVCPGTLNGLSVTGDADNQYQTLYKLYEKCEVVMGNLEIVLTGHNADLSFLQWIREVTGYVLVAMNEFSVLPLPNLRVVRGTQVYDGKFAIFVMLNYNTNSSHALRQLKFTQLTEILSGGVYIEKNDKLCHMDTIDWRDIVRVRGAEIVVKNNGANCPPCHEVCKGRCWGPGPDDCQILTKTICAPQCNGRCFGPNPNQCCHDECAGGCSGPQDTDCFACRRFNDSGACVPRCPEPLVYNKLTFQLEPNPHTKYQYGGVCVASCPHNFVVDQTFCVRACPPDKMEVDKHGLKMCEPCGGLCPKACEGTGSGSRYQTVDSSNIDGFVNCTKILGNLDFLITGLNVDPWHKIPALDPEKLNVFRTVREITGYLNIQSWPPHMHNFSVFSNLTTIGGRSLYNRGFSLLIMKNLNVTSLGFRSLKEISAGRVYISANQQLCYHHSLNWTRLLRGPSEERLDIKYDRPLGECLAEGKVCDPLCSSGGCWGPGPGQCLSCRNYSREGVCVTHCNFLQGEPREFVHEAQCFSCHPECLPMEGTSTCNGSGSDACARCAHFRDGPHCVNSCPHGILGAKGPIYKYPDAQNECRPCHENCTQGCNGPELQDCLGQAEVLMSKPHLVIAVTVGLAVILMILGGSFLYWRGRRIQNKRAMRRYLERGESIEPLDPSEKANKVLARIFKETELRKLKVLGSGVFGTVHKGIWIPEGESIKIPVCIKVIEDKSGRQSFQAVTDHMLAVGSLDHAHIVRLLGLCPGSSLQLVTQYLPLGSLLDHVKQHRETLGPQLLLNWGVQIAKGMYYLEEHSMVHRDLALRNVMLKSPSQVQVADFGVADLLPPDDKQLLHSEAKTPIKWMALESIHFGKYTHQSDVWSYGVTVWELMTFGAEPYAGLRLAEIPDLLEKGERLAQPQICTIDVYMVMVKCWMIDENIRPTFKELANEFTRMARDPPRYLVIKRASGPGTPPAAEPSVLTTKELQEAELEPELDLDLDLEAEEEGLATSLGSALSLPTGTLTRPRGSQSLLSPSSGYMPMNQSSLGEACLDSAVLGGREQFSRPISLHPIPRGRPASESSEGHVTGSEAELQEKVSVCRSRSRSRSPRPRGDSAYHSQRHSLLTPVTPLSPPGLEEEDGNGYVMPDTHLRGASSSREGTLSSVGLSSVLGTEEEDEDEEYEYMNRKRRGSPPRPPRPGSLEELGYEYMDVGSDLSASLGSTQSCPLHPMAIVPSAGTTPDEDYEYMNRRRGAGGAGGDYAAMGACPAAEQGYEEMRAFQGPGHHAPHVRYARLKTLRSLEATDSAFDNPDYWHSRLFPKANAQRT
T4 sequence (P06494 23-1257 partner): as the sequence (P06494 23-1257 partner) above

B1: Example 11: NRG4 D1G/V22Q/E44K, (GGGGS)3 linker, SEQ ID NO: 19, fused to IgG Fc dimer SEQ ID NO: 8 and 9 (protein)
chain 1: GGGGSGGGGSGGGGSGHEEPCGPSHKSFCLNGGLCYQIPTIPSPFCRCVENYTGARCEKVFL
chain 2: ECPPCPAPPVAGPSVFLFPPKPKDTLMASRTPEVTCVVVDVSHEDPEVQFNWYVDGVEVHNAKTKPREEQFNSTFRVVSVLTVVHQDWLNGKEYKCKVSNKGLPAPIEKTISKTKGQPREPQVYTLPPSREEMTKNQVSLWCLVKGFYPSDIAVEWESNGQPENNYKTTPPVLDSDGSFFLYSKLTVDKSRWQQGNVFSCSVMHEALHNAYTQKSLSLSPG
chain 3: ECPPCPAPPVAGPSVFLFPPKPKDTLMASRTPEVTCVVVDVSHEDPEVQFNWYVDGVEVHNAKTKPREEQFNSTFRVVSVLTVVHQDWLNGKEYKCKVSNKGLPAPIEKTISKTKGQPREPQVYTLPPSREEMTKNQVSLSCAVKGFYPSDIAVEWESNGQPENNYKTTPPVLDSDGSFFLVSKLTVDKSRWQQGNVFSCSVMHEALHNAYTQKSLSLSPG
- % Maximal NRG1 activity (human HER2/HER4; [4]): 79 ± 2 (N = 5) %
- EC50 (human HER2/HER4; [5]): 0.55 ± 0.11 nM
- % Maximal NRG1 activity (rat HER2/HER4; [4]): 96 ± 2 (N = 2) %
- EC50 (rat HER2/HER4; [5]): 0.17 ± 0.06 nM
- EC50 (human HER2/HER3): > 1000 nM
- EC50 (rat HER2/HER3): > 1000 nM
- Ejection Fraction ([1]; 0.3 mg/kg single injection, 7 days after dosing): 50.1* %
- Ejection Fraction ([1]; 0.3 mg/kg single injection, 14 days after dosing): 42.6%
- Ejection Fraction ([1]; 0.3 mg/kg single injection, 21 days after dosing): 36.4%
- Ejection Fraction ([1]; 0.3 mg/kg single injection, Baseline (before dosing)): 45.4%
- Ejection Fraction ([1]; 1 mg/kg single injection, 7 days after dosing): 52.4* %
- Ejection Fraction ([1]; 1 mg/kg single injection, 14 days after dosing): 42.2%
- Ejection Fraction ([1]; 1 mg/kg single injection, 21 days after dosing): 39.7%
- Ejection Fraction ([1]; 1 mg/kg single injection, Baseline (before dosing)): 46.6%
- Ejection Fraction ([1]; 3 mg/kg single injection, 7 days after dosing): 54.7* %
- Ejection Fraction ([1]; 3 mg/kg single injection, 14 days after dosing): 54.0* %
- Ejection Fraction ([1]; 3 mg/kg single injection, 21 days after dosing): 39.6%
- Ejection Fraction ([1]; 3 mg/kg single injection, Baseline (before dosing)): 45.8%
- LVD dilation ([1]; 0.3, 1, 3 mg/kg single injection vs vehicle, course of the study (data not shown)): No differences in LVD dilation are observed across groups
- inspections of tissue (cardiac toxicity) (cynomolgus monkeys): cardiac degeneration and necrosis
- plasma concentration [2]: undetectable at 96 hours
- time for detectable plasma concentrations to be cleared [3]: > 168 h
- inspections of tissue (cardiac toxicity) (rats): no evidence of cardiac degeneration and/or necroses
